Data as given in patent US20080159989A1.

Molecular target: Nodal (mouse) (UniProt P43021)

Row | % of beating EB (Cripto-/- ES cells transfected with Cerberus, EBs treated with recombinant Cripto) (% of beating EB) | % of beating EB (Cripto-/- ES cells transfected with Cerberus-S, EBs treated with recombinant Cripto) (% of beating EB) | Substance
1 | 10.3 |  | Cerberus
2 |  | 8.3 | Cerberus-Short (CerS)
